Data as given in patent publication US6933284.

Target: LDL receptor on normal human fibroblasts (human) (UniProt P01130)
Experiment: competition with 125I-labeled human plasma LDL (2 µg/ml) for LDL receptors on normal human fibroblasts, 3 h at 4 °C

Substance	ED50 [µg/mL]
recombinant control LDL (human apo-B100 with leucine in place of glutamine at position 2153), P04114 28-4563	2.3
R3500Q LDL (recombinant LDL, human apo-B100 with glutamine for arginine at residue 3500), P04114 28-4563	> 20
K3363E LDL (recombinant LDL, human apo-B100 with glutamic acid for lysine at residue 3363), P04114 28-4563	2.4
RK3359-3369SA LDL (recombinant LDL, human apo-B100 with the arginines of Site B changed to serines and the lysines to alanines), P04114 28-4563	> 20
